1 molecule from patent US20240409653A1 (Genmab, published 2024) can be followed below.

The target in this assay is Human PD-L1 (human, UniProt Q9NZQ7 19-290). The assay can be described thus: cell-based or functional assay.
Human PD-L1, sequence (Q9NZQ7 19-290): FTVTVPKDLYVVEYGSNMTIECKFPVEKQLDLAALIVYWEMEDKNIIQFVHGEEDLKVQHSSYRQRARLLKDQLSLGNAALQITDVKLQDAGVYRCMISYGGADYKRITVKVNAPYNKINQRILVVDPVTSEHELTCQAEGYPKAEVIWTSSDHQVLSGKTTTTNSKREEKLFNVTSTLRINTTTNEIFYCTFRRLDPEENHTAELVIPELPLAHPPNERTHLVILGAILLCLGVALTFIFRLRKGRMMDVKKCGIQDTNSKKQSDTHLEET

B1: GEN1046 (bispecific antibody, human IgG1, kappa, lambda)
heavy 1: EVQLVESGGGLVQPGRSLRLSCTASGFSLNDYWMSWVRQAPGKGLEWVGYIDVGGSLYYAASVKGRFTISRDDSKSIAYLQMNSLKTEDTAVYYCARGGLTYGFDLWGQGTLVTVSSASTKGPSVFPLAPSSKSTSGGTAALGCLVKDYFPEPVTVSWNSGALTSGVHTFPAVLQSSGLYSLSSVVTVPSSSLGTQTYICNVNHKPSNTKVDKRVEPKSCDKTHTCPPCPAPEFEGGPSVFLFPPKPKDTLMISRTPEVTCVVVAVSHEDPEVKFNWYVDGVEVHNAKTKPREEQYNSTYRVVSVLTVLHQDWLNGKEYKCKVSNKALPAPIEKTISKAKGQPREPQVYTLPPSREEMTKNQVSLTCLVKGFYPSDIAVEWESNGQPENNYKTTPPVLDSDGSFFLYSRLTVDKSRWQQGNVFSCSVMHEALHNHYTQKSLSLSPG
light 1: DIVMTQSPSSLSASVGDRVTITCQASEDISSYLAWYQQKPGKAPKRLIYGASDLASGVPSRFSASGSGTDYTFTISSLQPEDIATYYCHYYATISGLGVAFGGGTKVEIKRTVAAPSVFIFPPSDEQLKSGTASVVCLLNNFYPREAKVQWKVDNALQSGNSQESVTEQDSKDSTYSLSSTLTLSKADYEKHKVYACEVTHQGLSSPVTKSFNRGEC
heavy 2: EVQLLEPGGGLVQPGGSLRLSCEASGSTFSTYAMSWVRQAPGKGLEWVSGFSGSGGFTFYADSVRGRFTISRDSSKNTLFLQMSSLRAEDTAVYYCAIPARGYNYGSFQHWGQGTLVTVSSASTKGPSVFPLAPSSKSTSGGTAALGCLVKDYFPEPVTVSWNSGALTSGVHTFPAVLQSSGLYSLSSVVTVPSSSLGTQTYICNVNHKPSNTKVDKRVEPKSCDKTHTCPPCPAPEFEGGPSVFLFPPKPKDTLMISRTPEVTCVVVAVSHEDPEVKFNWYVDGVEVHNAKTKPREEQYNSTYRVVSVLTVLHQDWLNGKEYKCKVSNKALPAPIEKTISKAKGQPREPQVYTLPPSREEMTKNQVSLTCLVKGFYPSDIAVEWESNGQPENNYKTTPPVLDSDGSFLLYSKLTVDKSRWQQGNVFSCSVMHEALHNHYTQKSLSLSPG
light 2: SYVLTQPPSVSVAPGQTARITCGGNNIGSKSVHWYQQKPGQAPVLVVYDDNDRPSGLPERFSGSNSGNTATLTISRVEAGDEADYYCQVWDSSSDHVVFGGGTKLTVLGQPKAAPSVTLFPPSSEELQANKATLVCLISDFYPGAVTVAWKADSSPVKAGVETTTPSKQSNNKYAASSYLSLTPEQWKSHRSYSCQVTHEGSTVEKTVAPTECS
For B1, the “EC50 value [µg/ml], CD8+ T-cell expansion, donor 02” value was 0.00523 µg/mL; the “EC50 value [µg/ml], CD8+ T-cell expansion, donor 28” value came to 0.00754 µg/mL; the “EC50 value [µg/ml], CD8+ T-cell expansion, donor 72” value is 0.00506 µg/mL; the “EC50 value [µg/ml], CD8+ T-cell expansion, donor 89” value was 0.00776 µg/mL. Also, the “EC50 value [µg/ml], CD8+ T-cell expansion, mean of donors” value turned out to be 0.0064 µg/mL.
